Reference: patent US20220064286A1 (Genentech, published 2022)
Where two headings read alike, the source gives them in different places.

T1: human TIGIT protein (human, UniProt Q495A1 22-141, limits assumed)
T1 construct: Recombinant protein (Genentech) used in ELISA screening and as SPR analyte; also called TIGIT antigen
T1 sequence: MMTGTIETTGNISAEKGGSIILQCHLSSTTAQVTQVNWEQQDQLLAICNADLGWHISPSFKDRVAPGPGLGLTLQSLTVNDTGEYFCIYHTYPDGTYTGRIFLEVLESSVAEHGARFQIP

T2: full-length human TIGIT on CHO cells (human, UniProt Q495A1 22-244)
T2 construct: also called CHO-hTIGIT; hu TIGIT
T2 sequence: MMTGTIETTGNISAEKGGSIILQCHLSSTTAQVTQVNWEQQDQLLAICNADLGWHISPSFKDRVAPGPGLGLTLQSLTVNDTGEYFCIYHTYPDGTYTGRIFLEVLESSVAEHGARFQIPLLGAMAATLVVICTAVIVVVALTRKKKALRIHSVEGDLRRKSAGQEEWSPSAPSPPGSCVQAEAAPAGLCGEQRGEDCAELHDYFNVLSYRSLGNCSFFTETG

T3: human TIGIT on activated human primary T cells (human, UniProt Q495A1 22-244)
T3 construct: also called Human T cell
T3 sequence: T2 sequence

T4: human TIGIT-AviFlag-biotin (human, UniProt Q495A1 22-141, biotin)
T4 sequence: T1 sequence

T5: mouse TIGIT-His (mouse, UniProt P86176 29-148, limits assumed)
T5 sequence (looked up): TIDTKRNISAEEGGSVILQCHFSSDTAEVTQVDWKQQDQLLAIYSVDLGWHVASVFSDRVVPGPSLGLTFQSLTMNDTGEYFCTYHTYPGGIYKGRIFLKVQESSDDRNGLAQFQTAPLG

B1: 4.1A4 (antibody, V domains shown)
VH: QVQLVQSGSELKKPGASVKVSCKASGYTLTNYPMNWVRQAPGRGLEWMGWINTNTGSPAYAQDFTERFVFSLDTSVTTAYLQISSLKAEDTAVYYCARTAITSVYHFDYWGQGTLVTVSS
VL: DIQLTQSPSFLSASVGDRVTITCRASQGISSYLAWYQQKPGKAPRVLIYGATTLQSGVPSRFSGSESGTEFTLTISSLQPEDLATYYCQKLNSHPCSFGQGTKVEIK
notes: OMT rat-derived human antibody; also called 4.1A4.Q1.C96
B2: rat15C8 (antibody, V domains shown)
VH: EVQLQQSGPELQRPGASVKLSCKASGYTFTEHSIYWLKQRPKQSLEIIGRIDPKNGRTYFVDKFKNRATLTTNTSSNTAYMQLSSLTSEDTAIYFCARIDGFYFDFWGQGVMVTASS
VL: NIHLTQSPSLLSASVGDRVTLSCKGSQNVNKYLVWYQQKLGEAPKLLIYSTDNLQSGIPSRFSGSGSGTDYTLTISSLQPEDAATYFCYQYNNGFTFGSGTKLEIK
notes: SD rat-derived; rat V domains as FR/HVR pieces; also called 1.15C8; Chimeric 1.15C8
B3: rat10A5 (antibody, V domains shown)
VH: QVSLKESGPGILQPSHTLSLTCSFSGFSLTTYGMGVSWIRQPSEKGLEWLASIWWNGNTYYNPSLRSRLTVSKDTSNDQAFLNVTSVDTTDTATYYCAHTGGAVITWFAYWGQGTLVTVSS
VL: NIVMTQSPKSMSISIGDRVTMNCKASQSVGKNIAWYQQKTGQSPQLLIYYASNRYTGVPDRFTGGGSGTDFTLTINSVQAEDAAFFYCQHIYNSPYPFGTGTKLEIK
notes: SD rat-derived; rat V domains as FR/HVR pieces; also called 1.10A5; Chimeric 1.10A5
B4: 4.1D3.Q1E Fab (Fab, V domains shown)
VH: EVQLQQSGPGLVKPSQTLSLTCAISGDSVSSNSAAWNWIRQSPSRGLEWLGKTYYRFKWYSDYAVSVKGRITINPDTSKNQFSLQLNSVTPEDTAVFYCTRESTTYDLLAGPFDYWGQGTLVTVSS
VL: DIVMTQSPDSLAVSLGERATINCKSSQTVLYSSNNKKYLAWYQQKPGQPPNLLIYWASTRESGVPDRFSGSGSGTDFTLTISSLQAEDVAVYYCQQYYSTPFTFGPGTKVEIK
notes: also called 4.1 D3.Q1E in Fab format

How the values were obtained:
[1] = target: T6, cynomolgus monkey (cyno) TIGIT protein (cynomolgus monkey, UniProt A0A7N9I9V4 89-209); assay: SPR, captured mAb
Description: (§1) To prevent unwanted pyroglutamate formation for clones 4.1A4, 4.1 D3, and 7.4A3 (also referred to as 1A4, 1 D3, and 4A3, respectively) and to resolve the issue of unpaired cysteine residues for clones 4.1A4 and 7.4A3, the following optimized anti-TIGIT antibody variants were generated: 4.1A4.C96S.Q1E, 4.1A4.C96Y.Q1E, 4.1 D3.Q1E, 7.4A3.C96S.Q1E, and 7.4A3.C96Y.Q1E (also referred to as 1A4.C96S.Q1E, 1A4.C96Y.Q1E, 1 D3.Q1E, 4A3.C96S.Q1E, and 4A3.C96Y.Q1E, respectively). As described below in Table 2, the affinities of these five optimized variants for human and cynomolgus monkey (cyno) TIGIT were then determined by Surface Plasmon Resonance (SRP) (BIACORE™ analysis) and compared to that of their respective parental clones.
(§2) Briefly, a series S CM5 biosensor chip was activated with N-ethyl-N′-(3-dimethylaminopropyl)-carbodiimide hydrochloride (EDC) and N-hydroxysuccinimide (NHS) reagents according to the supplier's (GE Healthcare Biosciences, Piscataway, N.J.) instructions, and a human antibody capture kit was applied to couple goat anti-human Fc IgGs in order to achieve approximately 10,000 response units (RU) on each flow cell, followed by blocking un-reacted groups with 1M ethanolamine.
(§3) (flow rate: 30 μl/min) with no regeneration between injections. The sensorgrams were recorded and evaluated by BIAcore™ T200 Evaluation Software (version 2.0) after subtraction of reference cell signal. Association rates (kₒₙ) and dissociation rates (koff) were calculated using a simple one-to-one Langmuir binding model. The equilibrium dissociation constant (KD) was calculated as the ratio koff/kₒₙ.

human TIGIT protein [2] = target: T1, human TIGIT protein; assay: SPR, captured mAb
Description: as §1, §2, §3

[3] = target: T2, full-length human TIGIT on CHO cells; assay: FACS blocking assay: labelled PVR-Fc (blocked ligand) on CHO cells expressing human TIGIT
Procedure: (§4) These studies were further validated in CHO-TIGIT PVR blocking experiments in which TIGIT-expressing CHO cells were incubated with labeled PVR-Fc fusion protein in the presence of anti-TIGIT antibody or an human IgG1 control (FIG. 4A).

[4] = target: T6, cynomolgus monkey (cyno) TIGIT protein; assay: SPR, monovalent affinity
human TIGIT protein [5] = target: T1, human TIGIT protein; assay: SPR, monovalent affinity
[6] = target: T6, cynomolgus monkey (cyno) TIGIT protein; assay: SPR, bivalent affinity
human TIGIT protein [7] = target: T1, human TIGIT protein; assay: SPR, bivalent affinity
[8] = target: T7, cynomolgus TIGIT on CHO cells (cynomolgus monkey, UniProt A0A7N9I9V4 89-312); assay: FACS on CHO cells expressing cyno TIGIT, FITC anti-hIgG detection
T7 construct: whole, on cells; also called CHO-cyTIGIT; cyTIGIT
Procedure: (§5) Additional in vitro binding studies of the OMT- and SD-derived anti-TIGIT antibody clones were conducted. The OMT- and SD-derived anti-TIGIT clones were tested for binding to human and cyno TIGIT expressed on the surface of CHO cells by FACS analysis. CHO cells were transfected with full-length human TIGIT (CHO-hTIGIT) or cynomologous TIGIT (CHO-cyTIGIT). The TIGIT-expressing CHO cells were incubated with each anti-TIGIT antibody at the indicated concentrations and then detected via a FITC-labeled anti-hIgG antibody (see FIG. 1A) using standard methods. The results, shown in Table 6 and FIGS. 1B-1E, corroborate the results from the BIACORE™ analysis, described above.

[9] = target: T3, human TIGIT on activated human primary …; assay: FACS on activated human PBMC, CD4 T cells, FITC anti-hIgG detection
Procedure: The OMT- and SD-derived anti-TIGIT clones were also tested for binding to human primary T cells by FACS analysis. Human PBMC were activated for with plate-bound anti-CD3 (5 μg/ml) and soluble anti-CD28 (2 μg/ml) for 2 days as described in Yu et al. Nature Immunology. 10: 48-57, 2009, which is incorporated herein by reference in its entirety. Cells were then washed and incubated with incubated with each anti-TIGIT antibody at the indicated concentrations and then detected via a FITC-labeled anti-hIgG antibody. Cells were also stained with anti-CD4, anti-CD8, and anti-CD25 (BD bioscience). Human CD4+(CD25+CD4+) and human CD8+(CD25+CD8+) T cells were assessed for binding by the anti-TIGIT clones by FACS. All samples were acquired on LSR-II or LSR-Fortessa instruments (BD Biosciences) and analyzed using FlowJo software (Treestar).

[10] = target: T2, full-length human TIGIT on CHO cells; assay: FACS on CHO cells expressing human TIGIT, FITC anti-hIgG detection
Procedure: as §5

[11] = target: T6, cynomolgus monkey (cyno) TIGIT protein; assay: SPR, captured mAb; remark: listed apart in the source
human TIGIT protein [12] = target: T1, human TIGIT protein; assay: SPR, captured mAb; remark: listed apart in the source
[13] = target: T7, cynomolgus TIGIT on CHO cells; assay: FACS blocking assay: labelled PVR-Fc (blocked ligand) on CHO cells expressing cyno TIGIT
Procedure: as §4

[14] = target: T4, human TIGIT-AviFlag-biotin; assay: Block ELISA Human PVR-Fc:Bio-TIGIT-AviFlag (blocked ligand human PVR-Fc)
Procedure: (§6) To test for the ability of the clones to block the TIGIT-PVR interaction, a blocking ELISA assay was used. Briefly, recombinant human PVR-Fc fusion protein, cynomolgus monkey PVR-Fc fusion protein, or mouse PVR-Fc fusion protein was coated at 4 μg/ml at 25 μl/well in phosphate-buffered saline (PBS, pH 7.0) onto 384-well Maxisorp microtiter plates (NUNC, Denmark) and incubated overnight at 4° C. The coating solution was then discarded and the plate was blocked using 0.5% bovine serum albumin (BSA) in PBS at 80 μl/well and incubated with gentle agitation for 1 hour. Titration curves of anti-TIGIT and Fab isotype control antibodies were diluted in assay buffer (PBS, 0.5% BSA, 0.05% Tween 20) using 12 serial 2.5-fold dilutions (40000-1.7 ng/mL). […] The plate was then washed 6× with wash buffer and bound human TIGIT-AviFlag-biotin, cyno TIGIT-AviFlag-biotin, or mouse TIGIT-His was detected by adding 25 μl/well of horseradish peroxidase-conjugated streptavidin (1:10000, Amersham, UK) or horseradish peroxidase-conjugated mouse anti-His (1:2500, Qiagen, Germany) diluted in assay buffer. […] Absorbance was read at 450 nm on a […] ASCENT® microtiter plate reader (Thermo Labsystems, Helsinki, Finland). Fit curves were plotted from the resulting optical density values from the ELISA plates and IC50s were calculated using Genedata Screener software (Genedata, Switzerland).

[15] = target: T8, cynomolgus TIGIT-AviFlag-biotin (cynomolgus monkey, UniProt A0A7N9I9V4 89-209, biotin); assay: Block ELISA Cyno PVR-Fc:Bio-TIGIT-AviFlag (blocked ligand cyno PVR-Fc)
T8 construct: also called cyno TIGIT-AviFlag-biotin
Procedure: as §6

mouse TIGIT-His = target: T5, mouse TIGIT-His; assay: Block ELISA Mouse PVR-Fc:TIGIT-His (blocked ligand mouse PVR-Fc)
Procedure: as §6

T7 sequence (A0A7N9I9V4 entry or part of it): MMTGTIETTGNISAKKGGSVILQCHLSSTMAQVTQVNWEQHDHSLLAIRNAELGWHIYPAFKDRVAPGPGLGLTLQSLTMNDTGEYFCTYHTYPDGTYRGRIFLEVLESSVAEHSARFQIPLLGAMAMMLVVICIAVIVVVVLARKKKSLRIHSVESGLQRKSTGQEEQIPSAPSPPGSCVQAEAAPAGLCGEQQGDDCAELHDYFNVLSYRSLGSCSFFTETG
T6 sequence (A0A7N9I9V4 entry or part of it): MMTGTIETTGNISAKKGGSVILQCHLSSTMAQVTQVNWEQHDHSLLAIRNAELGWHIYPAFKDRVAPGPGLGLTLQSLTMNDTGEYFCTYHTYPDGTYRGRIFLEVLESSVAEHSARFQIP

Binder | IC50 (read off the curve) [3] [nM] | Kd [4] [nM] | Kd (human TIGIT protein [5]) [nM] | Kd [6] [nM] | Kd (human TIGIT protein [7]) [nM] | EC50 (read off the curve) [8] [nM] | EC50 (read off the curve) [9] [nM] | EC50 (read off the curve) [10] [nM] | Kd [11] [nM] | koff [11] [s⁻¹] | kon [11] [M⁻¹ s⁻¹] | Kd (human TIGIT protein [12]) [nM] | koff (human TIGIT protein [12]) [s⁻¹] | kon (human TIGIT protein [12]) [M⁻¹ s⁻¹] | IC50 (read off the curve) [13] [nM] | also measured
B1 | ~0.2 | 2.6 | 4.9 | 0.035 | 0.31 | ~0.8 | ~0.5 | ~1 | – | – | – | – | – | – | – | Kd [1]: 2.42 nM; koff [1]: 0.000643 s⁻¹; kon [1]: 266000 M⁻¹ s⁻¹; Kd (human TIGIT protein [2]): 3.57 nM; koff (human TIGIT protein [2]): 0.00122 s⁻¹; kon (human TIGIT protein [2]): 342000 M⁻¹ s⁻¹
B2 | ~0.4 | 0.25 | 0.034 | ≤ 0.013 | ≤ 0.007 | ~0.4 | – | ~0.3 | 0.25 | 9.6e-05 | 381000 | 0.03 | 1.8e-05 | 522000 | ~0.3 | –
B3 | – | 0.41 | 0.093 | 0.013 | ≤ 0.003 | ~0.2 | ~0.09 | ~0.2 | 0.41 | 0.000281 | 678000 | 0.09 | 8.4e-05 | 905000 | ~0.09 | –
B4 | – | – | – | – | – | – | – | – | – | – | – | – | – | – | – | IC50 [14]: 6.9 nM; IC50 [15]: 1.5 nM; IC50 (mouse TIGIT-His): > 133 nM
